Experiments:
[1] = target: T1, human 4-1BB, full length, on transfected cells (human, UniProt Q07011 24-255); test: FACS, CHOK1-h4-1BB cells; Ab 0.00064 ug/ml
T1 construct: whole, on cells; also called CHOK1-h4-1BB
Procedure, shortened: (§1)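 CHOK1 stable lines expressing human or monkey 4-1BB were detached with enzyme-free Versene, blocked in 1% goat serum on ice for 30 min and resuspended at 2×10⁶ cells/mL in HBSS with 1% BSA. Purified antibody was bound on ice for 2 h, then cells were fixed in 4% paraformaldehyde and analysed by flow cytometry.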

[2] = target: T2, monkey 4-1BB on CHOK1 cells (monkey); test: FACS, CHOK1-c4-1BB cells; Ab 0.00013 ug/ml
T2 construct: whole, on cells; also called CHOK1-c4-1BB
Procedure, shortened: as §1

[3] = target: T2, monkey 4-1BB on CHOK1 cells; test: FACS, CHOK1-c4-1BB cells; Ab 0.016 ug/ml
Procedure, shortened: as §1

[4] = target: T3, hFc-tagged human 4-1BB extracellular domain protein (4-1BB-hFc) (human, UniProt Q07011 24-186, limits assumed); test: ELISA, coated human 4-1BB-hFc; Ab 0.4 ug/ml
T3 construct: also called immunogen A; 4-1BB^ECD-hFc; not shown: human IgG Fc fragment (hFc) of the pCpC vector
Method: (§2) The purified immunogen A (4-1BB-hFc), monkey 4-1BB-his, and mouse 4-1BB-his obtained in Example 1 [for the preparation method, see step 1 of Example 1, preparation of immunogen A], of which the extracellular domain of monkey-derived 4-1BB protein (purchased from ACRO biosystems), the extracellular domain of mouse 4-1BB protein (purchased from sino biological) or other immune detection point proteins respectively were diluted with PBS to a final concentration of 1.0 μg/mL, then added with […] per well to 96-well ELISA plate. It was sealed with plastic film and incubated at 4° C. overnight. The next day, the plate was washed twice with the plate-washing solution [PBS containing 0.01% (v/v) Tween20] and blocking solution [PBS containing 0.01% (v/v) Tween 20 and 1% (v/v) BSA] was added and blocked at room temperature for 2 hours. The blocking solution was discarded and 100 μl of the purified 4-1BB antibody obtained in Example 2 was added per well. After incubated at 37° C. for 2 hours, the plate was washed 3 times with a plate-washing solution [PBS containing 0.01% (v/v) Tween20]. A secondary antibody (purchased from Sigma) labeled with HRP (horseradish peroxidase) was added, and after incubated at 37° C. for 2 hours, the plate was washed 3 times with a plate-washing solution [PBS containing 0.01% (v/v) Tween20]. 100 μl of TMB substrate was added per well. After incubated for 30 minutes at room temperature, 100 μl of stop buffer (1.0N HCl) was added per well. The A450 nm values were read using an ELISA plate reader (SpectraMax 384plus, Molecular Device).

[5] = target: T3, hFc-tagged human 4-1BB extracellular …; test: ELISA, coated human 4-1BB-hFc; Ab 2 ug/ml
Method: as §2

[6] = target: T1, human 4-1BB, full length, on …; test: FACS on CHOK1-h4-1BB cells, Alexa 488 secondary antibody, average fluorescence intensity
Excerpt: The pIRES plasmid carrying the full-length gene of monkey-derived […] (the preparation method is the same as the preparation method of the pCpC vector carrying the human-derived IgG Fc fragment (hFc) in “Preparation of immunogen A” of the step (1) in Example 1, in which the database accession number of the amino acid sequence of the extracellular region of monkey 4-1BB protein (Phe19-Thr239) is G7PSE7) was transfected into CHOK1 cell line to obtain CHOK1 stable transfected cell line containing monkey 4-1BB (herein referred to as CHOK1-c4-1BB stable cell line). The CHOK1-h4-1BB stable cell line and the CHOK1-c4-1BB stable cell line were expanded and cultivated to 90% confluence in T-75 cell culture flasks. The medium was exhausted, and washed twice with HBSS buffer (Hanks Balanced Salt Solution, purchased from Invitrogen), and then the cells were treated and collected with enzyme-free cell dissociation solution (Versene solution, purchased from Life Technology). The cells were washed twice with HBSS buffer, and after cell counting, the cells were diluted with HBSS buffer to 2×10⁶ cells per ml, and 1% goat serum blocking solution was added, the percentage being the mass percentage. It was incubated on ice for 30 minutes, and then washed twice with HBSS buffer by centrifugation. The collected cells were suspended in FACS buffer (HBSS containing 1% BSA, the percentage was the mass percentage) to 2×10⁶ cells/mL, and 100 μl per well was added to a 96-well FACS reaction plate. The purified 4-1BB antibody test sample obtained in Example 2 was added, 100 microliters per well and incubated on ice for 2 hours. […] It was washed three times with FACS buffer by centrifugation, and 100 μl of fixative [4% (v/v) paraformaldehyde] per well was added to suspend cells, and washed twice with FACS buffer after 10 minutes by centrifugation. The cells were suspended with 100 microliters of FACS buffer, and the results were detected and analyzed with FACS (FACS Calibur, purchased from BD).

[7] = target: T2, monkey 4-1BB on CHOK1 cells; test: FACS, CHOK1-c4-1BB cells; Ab 0.00064 ug/ml
Procedure, shortened: as §1

[8] = target: T2, monkey 4-1BB on CHOK1 cells; test: FACS, CHOK1-c4-1BB cells; Ab 10 ug/ml
Procedure, shortened: as §1

[9] = target: T2, monkey 4-1BB on CHOK1 cells; test: FACS, CHOK1-c4-1BB cells; Ab 2 ug/ml
Procedure, shortened: as §1

[10] = target: T2, monkey 4-1BB on CHOK1 cells; test: FACS, CHOK1-c4-1BB cells; Ab 0.0032 ug/ml
Procedure, shortened: as §1

[11] = target: T3, hFc-tagged human 4-1BB extracellular …; test: ELISA, coated human 4-1BB-hFc; Ab 0.0001 ug/ml
Method: as §2

[12] = target: T3, hFc-tagged human 4-1BB extracellular …; test: ELISA, coated human 4-1BB-hFc; Ab 0.0006 ug/ml
Method: as §2

[13] = target: T1, human 4-1BB, full length, on …; test: FACS, CHOK1-h4-1BB cells; Ab 0.0032 ug/ml
Procedure, shortened: as §1

[14] = target: T1, human 4-1BB, full length, on …; test: FACS, CHOK1-h4-1BB cells; Ab 0.016 ug/ml
Procedure, shortened: as §1

T1 sequence (Q07011 24-255): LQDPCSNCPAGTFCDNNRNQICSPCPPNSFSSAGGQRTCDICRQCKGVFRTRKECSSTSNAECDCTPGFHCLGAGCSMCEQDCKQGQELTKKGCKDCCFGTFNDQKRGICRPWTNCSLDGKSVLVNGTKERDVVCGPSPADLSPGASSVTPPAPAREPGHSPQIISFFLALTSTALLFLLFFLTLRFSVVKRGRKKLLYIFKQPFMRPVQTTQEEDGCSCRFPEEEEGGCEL

B1: 15G10D4 (antibody, V domains shown)
VH: QVQLVESGGGVVQPGRSLRLSCAASGFSFSSYAMHWVRQAPGKGLEWVAIIWYDGSNQYYADSVKGRFTISRDNSKNTLYLQMNSLRAEDTAVYYCARVKQWLVSYFDYWGQGTLVTVSS
VL: EIVMTQSPATLSVSPGERATLSCRASQSVSSNLAWYQQKPGQVPRLLIYGASTRATGIPARFSGSGSGTEFSLIISSLQSEDFAVYYCQQYNNWPTFGGGTKVEIK
B1 showed an average fluorescence intensity [1] of 9.3 MFI, an average fluorescence intensity [2] of 3.3 MFI and an average fluorescence intensity [3] of 37.3 MFI. For the same binder, the OD450 nm [4] was 3.55 OD450 nm, the OD450 nm [5] was 3.61 OD450 nm and the “EC50 (read off the curve)” value [6] was ~0.05 µg/mL. For the same binder, the average fluorescence intensity [7] was 4.8 MFI, the average fluorescence intensity [8] was 550 MFI and the average fluorescence intensity [9] was 646 MFI. For the same binder, the average fluorescence intensity [10] was 12 MFI, the OD450 nm [11] was 0.17 OD450 nm and the OD450 nm [12] was 0.19 OD450 nm. It also gave an average fluorescence intensity [13] of 28.8 MFI and an average fluorescence intensity [14] of 98.2 MFI.

From US20200347144A1 (SHANGHAI HYAMAB BIOTECH, published 2020)
